The values that follow come from patent US9358302.

The target of the experiment is GBSIII-OVAp (GBSIII conjugated to OVAp19). As to the kind of experiment: cell-based or functional assay.

“T-cell receptor of DO11.10 transgenic mice that recognizes OVA peptide 323-339 in the context of MHC class II (I-A^d) (TCR)”: the T cell proliferation, stimulation index (SI), 10 µg GBSIII-OVAp was 53.6 SI and the fold decrease in T cell proliferation against OVAp of the same amount was found to be 60 fold.
